Data published in US20160367515A1, “Improved delivery of poorly water soluble drugs with aphafetoprotein stabilized with metal ions” (Oy Safemed Ltd., priority 2013, published 2016).
Like-named read-outs stand apart in the source and are kept apart here.

Columns and labels:
[1] = tested on: mammary carcinoma cell line MCF-7; test: MTS cell viability assay, mammary carcinoma MCF-7 cells; format: cell-based, human; details: for Coefficient for drug interaction (CDI): MCF7 + Zn-rhAFP 1.4 μM (Zn:rhAFP 4:1) + drug, 48 h
Description: Effect of binding of Zn ions to rhAFP and sugar-free rhAFPo species was tested by measuring of their dose-dependent tumor-suppressive effect for mammary carcinoma cell line MCF-7 in vitro, as it was earlier described for natural embryonic eAFP (Dudich et al., Eur. J. Biochem. 1999; 266: 750-761). MCF-7 cells were incubated with various doses of rhAFP (rhAFPo), Zn-rhAFP (Zn-rhAFPo) or with natural embryonic eAFP for 48 h, and thereafter their viability was assessed by the colorimetric MTS assay (FIG. 1A).
Cell viability was assessed by the Promega CellTiter 96 AQueous Non-Radioactive Cell Proliferation MTS assay (Promega, USA) according to manufacturer's instructions. Cells were incubated with various AFP samples for 48 h as described above, followed by incubation with MTS-test reagents and measuring of the light adsorption of the formasan, appeared in the lysed cell supernatants at 492 nm by using VICTOR-1420 multilabel counter (Wallac, Finland). Intact cell cultures incubated without additions were taken as a control. By such a way the quantity of viable cells capable to internalize MTS dye was determined. Results were expressed as the mean optical density (OD)±the standard error of the mean triplicate cultures. The extent of cell viability was calculated as an average OD in experimental wells after addition of testing compounds in relation to untreated control wells, that was taken as 100%
To evaluate the efficacy of preparations rhAFP/Ptx and Zn-rhAFP/Ptx we compared the cytotoxic effect of Ptx alone or that in combination with rhAFP or Zn-rhAFP for taxol-resistant human hepatoma HepG2 cells, human breast carcinoma cells MCF-7, and rat glioma C6 cell lines in vitro. RhAFP or Zn-rhAFP were incubated with various doses of Ptx at 37° C. for 1 h to allow complex formation with molecular ratios rhAFP:Ptx 1:1; 1:3 or 1:5 and thereafter the mixtures were introduced into the cell culture for 48 hrs. Cytotoxicity was measured by MTS assay.
Various doses of rhAFP/Ptx complexes were tested for their effectiveness for inhibition of human mammary carcinoma MCF-7, human hepatoma HepG2, and rat glioma C6 tumor cell growth in vitro. First, we optimized drug concentration and rhAFP amount to the extent that it would not generate an extensive cytotoxic effect alone. Then, the cells were seeded in 96-well plates at a density of 3×10^3/well in 100 μl of medium for 24 hrs to allow adherence. The next day, rhAFP or Zn-rhAFP combined with Ptx at the molecular ratios of 1:1; 1:3 or 1:5 were added into the each well. After 48 h of incubation MTS assays were performed to determine survival rate of the cells. All the experiments were repeated at least three times. The results were expressed as mean±standard error (SE).
The coefficient of drug interaction (CDI) was calculated to analyze the effects of rhAFP and Ptx combinations. CDI was calculated by the equation: CDI=SRAFP/drug[…]/SRAFP×SRdrug, where SRAFP/drug is the average survival rate of combination group, and SRAFP or SRdrug are the average survival rates of the single agent groups. According to our evaluation, CDI values <1, =1 or >1 indicate that the combinations are synergistic, additive or antagonistic respectively.
The values of Zn-rhAFP/Ptx or rhAFP/Ptx complex concentration, which inhibited the cell viability by 50% (IC50) when compared to untreated control, were calculated according to the Hill's equation (sigmoid model of concentration-response curve) from the curves of dependence of the relative percentage of viable cells from AFP concentration expressed as mean values from three independent experiments±SD.
In order to confirm the hypothesis that the combination of Zn-rhAFP and various low water-soluble chemotherapeutic agents would reveal increased anti-tumor efficacy, different cytotoxic compounds were tested in combination with Zn-rhAFP for their cell-killing effect in MCF-7 cells in vitro. […]

[2] = tested on: NF-κB p65; test: Immunofluorescence of activated NF-κB p65 nuclear translocation in MCF-7 cells; format: cell-based, human; details: MCF-7, 2 h treatment
Description: The cells were incubated with paclitaxel (10 μM) with addition of Zn-rhAFP (3.0 μM) and/or curcumin (3.0 μM) for 2 h and then assessed for localization of p65 by immunocytochemistry. Activated […] (p65) was detected by treatment of the cells with phospho […] p65 rabbit polyclonal antibody (Cell signaling technologies, USA) followed by secondary goat anti-rabbit Ab-Alexa594 red (Molecular Probes, USA). Cells were visualized at magnification ×400 by fluorescent microscope Axioplan; Zeiss (Germany) equipped with corresponding color filter kits.
The relative amount of p65 in the cytosol and nucleus of the cells was assessed by ImageJ software and was taken as 100% in the control (cytosol+nucleus). Total amount of activated p65 in control untreated cells was taken as 100%. The experimental data are represented as percentage of control±SD from three independent calculations in various observation fields.
MCF-7 cells were seeded on the microscopic plates Lab-Tek™ Chamber Slides (Thermo Fisher Scientific-Nunc, Germany) and cultivated at 37° C. at 5% CO2 atmosphere for 48 h to allow cell adaptation to reach 80% confluence. To test effects of chemotherapeutic preparations on the activation and translocation of NF-κB, cells were treated for 2 h with Ptx (10 nM), curcumin (30 μM); Zn-rhAFP (1.4 μM), or their combination Zn-rhAFP/Ptx/Cur, after which they were fixed with 100% ice-cold acetone. Control cells were incubated without additions and their NF-κB content was taken as 100%. Activated NF-κB was detected by treatment of the cells with phospho NF-κB p65 rabbit polyclonal antibody (Cell signaling technologies, USA) followed by the secondary goat anti-rabbit antibodies Ab-Alexa594 (Molecular Probes, USA). Nuclei were visualized by staining with DAPI (Molecular probes, USA). Cells were visualized at magnification ×400 by fluorescent microscope Axioplan (Zeiss, Germany) equipped with corresponding color filter kits. Distribution throughout the cell of the activated p65 was assessed by the ImageJ software and was taken as 100% in the control samples (cytosol+nucleus).

[3] = tested on: normal CBA mice splenocytes; test: Unspecific toxicity against normal splenocytes, trypan blue staining; details: 48 h, standalone protein
Description: Zn-rhAFP was prepared in a molecular ratio Zn:rhAFP=4:1. Viable cells were visualized by trypan blue staining. The data are expressed as percentage of viable cells in experimental cell cultures relative to untreated control. Mean of three independent experiments is shown.
Viable cells were visualized by trypan blue staining.

[4] = Adiabatic scanning microcalorimetry of heat denaturation; format: physicochemical; details: protein 2.0 mg/ml in PBS pH 7.4; for ΔH (denaturation enthalpy): Zn/rhAFP 4/1, Ptx/rhAFP 1/1, Cur/rhAFP 1:1, error about ±6%; for Tmax (denaturation transition temperature): error ±0.5° C.
[5] = Example 3, MCF-7, 48 h, protein without drug, read-out: IC50, tumor suppressive effect of AFP species standalone
[6] = Example 6, MCF-7, 48 h, protein without Ptx, read-out: cytostatic activity (IC50) standalone against MCF-7 cells

COc1cc([C@@H]2c3cc4c(cc3[C@@H](O[C@@H]3O[C@@H]5CO[C@@H](C)O[C@H]5[C@H](O)[C@H]3O)[C@H]3COC(=O)[C@H]23)OCO4)cc(OC)c1O [Etoposide, etoposide]
Coefficient for drug interaction (CDI) [1]: 0.86

CC(C)=CCC/C(C)=C/C=C/C(C)=C/C=C/C(C)=C/C=C/C=C(C)/C=C/C=C(C)/C=C/C=C(\C)CCC=C(C)C [Lycopene, lycopene]
Coefficient for drug interaction (CDI) [1]: 0.71

N.N.[Cl][Pt][Cl] [Cisplatin, cisplatin]
Coefficient for drug interaction (CDI) [1]: 0.93

Oc1ccc(C=Cc2cc(O)cc(O)c2)cc1 [Resveratrol, resveratrol]
Coefficient for drug interaction (CDI) [1]: 0.72

O=c1c(-c2ccc(O)cc2)coc2cc(O)cc(O)c12 [Genistein, genistein]
Coefficient for drug interaction (CDI) [1]: 0.82

COc1cc(/C=C/C(=O)CC(=O)/C=C/c2ccc(O)c(OC)c2)ccc1O [Curcumin, curcumin]
effect on activated p65 (RelA) in the cell nucleus [2]: significant decrease of activated RelA in the cell nucleus
Coefficient for drug interaction (CDI) [1]: 0.88

COc1cccc2c1C(=O)c1c(O)c3c(c(O)c1C2=O)C[C@@](O)(C(=O)CO)C[C@@H]3O[C@H]1C[C@H](N)[C@H](O)[C@H](C)O1 [Doxorubicin, doxorubicin]
Coefficient for drug interaction (CDI) [1]: 0.66

B1: Zn-rhAFP: complex of rhAFP with Zn ions, prepared with 4-fold molar excess of ZnCl2 followed by dialysis (protein, UniProt P02771 19-609, looked up)
Alpha-fetoprotein: RTLHRNEYGIASILDSYQCTAEISLADLATIFFAQFVQEATYKEVSKMVKDALTAIEKPTGDEQSSGCLENQLPAFLEELCHEKEILEKYGHSDCCSQSEEGRHNCFLAHKKPTPASIPLFQVPEPVTSCEAYEEDRETFMNKFIYEIARRHPFLYAPTILLWAARYDKIIPSCCKAENAVECFQTKAATVTKELRESSLLNQHACAVMKNFGTRTFQAITVTKLSQKFTKVNFTEIQKLVLDVAHVHEHCCRGDVLDCLQDGEKIMSYICSQQDTLSNKITECCKLTTLERGQCIIHAENDEKPEGLSPNLNRFLGDRDFNQFSSGEKNIFLASFVHEYSRRHPQLAVSVILRVAKGYQELLEKCFQTENPLECQDKGEEELQKYIQESQALAKRSCGLFQKLGEYYLQNAFLVAYTKKAPQLTSSELMAITRKMAATAATCCQLSEDKLLACGEGAADIIIGHLCIRHEMTPVNPGVGQCCTSSYANRRPCFSSLVVDETYVPPAFSDDKFIFHKDLCQAQGVALQTMKQEFLINLVKQKPQITEEQLEAVIADFSGLLEKCCQGQEQEVCFAEEGQKLISKTRAALGV
modifications: zinc ion complex
effect on activated p65 (RelA) in the cell nucleus [2]: significant decrease of activated RelA in the cell nucleus
IC50 [1, 5]: 2.5 µM
IC50 [1, 6]: 5.2 µM
dose-dependent stimulation of growth of the normal splenocytes [3]: 40 % of control
ΔT1/2 (half width of the denaturation transition peak) [4]: 5.9 °C
ΔH (denaturation enthalpy) [4]: 171 kcal/mol
Tmax (denaturation transition temperature) [4]: 74.3 °C

B2: rhAFP: glycosylated wild-type recombinant human alpha-fetoprotein secreted by yeast Saccharomyces cerevisiae (protein, UniProt P02771 19-609, looked up)
Alpha-fetoprotein: RTLHRNEYGIASILDSYQCTAEISLADLATIFFAQFVQEATYKEVSKMVKDALTAIEKPTGDEQSSGCLENQLPAFLEELCHEKEILEKYGHSDCCSQSEEGRHNCFLAHKKPTPASIPLFQVPEPVTSCEAYEEDRETFMNKFIYEIARRHPFLYAPTILLWAARYDKIIPSCCKAENAVECFQTKAATVTKELRESSLLNQHACAVMKNFGTRTFQAITVTKLSQKFTKVNFTEIQKLVLDVAHVHEHCCRGDVLDCLQDGEKIMSYICSQQDTLSNKITECCKLTTLERGQCIIHAENDEKPEGLSPNLNRFLGDRDFNQFSSGEKNIFLASFVHEYSRRHPQLAVSVILRVAKGYQELLEKCFQTENPLECQDKGEEELQKYIQESQALAKRSCGLFQKLGEYYLQNAFLVAYTKKAPQLTSSELMAITRKMAATAATCCQLSEDKLLACGEGAADIIIGHLCIRHEMTPVNPGVGQCCTSSYANRRPCFSSLVVDETYVPPAFSDDKFIFHKDLCQAQGVALQTMKQEFLINLVKQKPQITEEQLEAVIADFSGLLEKCCQGQEQEVCFAEEGQKLISKTRAALGV
modifications: expressed in yeast
notes: glycosylated wild-type recombinant human alpha-fetoprotein secreted by yeast Saccharomyces cerevisiae
IC50 [1, 5]: 3.5 µM
IC50 [1, 6]: 6.1 µM
dose-dependent stimulation of growth of the normal splenocytes [3]: 40 % of control
ΔT1/2 (half width of the denaturation transition peak) [4]: 7.0 °C
ΔH (denaturation enthalpy) [4]: 166 kcal/mol
Tmax (denaturation transition temperature) [4]: 71.9 °C

B3: eAFP: fetal serum human AFP isolated from human cord serum (protein, UniProt P02771 19-609, looked up)
Alpha-fetoprotein: RTLHRNEYGIASILDSYQCTAEISLADLATIFFAQFVQEATYKEVSKMVKDALTAIEKPTGDEQSSGCLENQLPAFLEELCHEKEILEKYGHSDCCSQSEEGRHNCFLAHKKPTPASIPLFQVPEPVTSCEAYEEDRETFMNKFIYEIARRHPFLYAPTILLWAARYDKIIPSCCKAENAVECFQTKAATVTKELRESSLLNQHACAVMKNFGTRTFQAITVTKLSQKFTKVNFTEIQKLVLDVAHVHEHCCRGDVLDCLQDGEKIMSYICSQQDTLSNKITECCKLTTLERGQCIIHAENDEKPEGLSPNLNRFLGDRDFNQFSSGEKNIFLASFVHEYSRRHPQLAVSVILRVAKGYQELLEKCFQTENPLECQDKGEEELQKYIQESQALAKRSCGLFQKLGEYYLQNAFLVAYTKKAPQLTSSELMAITRKMAATAATCCQLSEDKLLACGEGAADIIIGHLCIRHEMTPVNPGVGQCCTSSYANRRPCFSSLVVDETYVPPAFSDDKFIFHKDLCQAQGVALQTMKQEFLINLVKQKPQITEEQLEAVIADFSGLLEKCCQGQEQEVCFAEEGQKLISKTRAALGV
IC50 [1, 5]: 3 µM
ΔT1/2 (half width of the denaturation transition peak) [4]: 5.8 °C
ΔH (denaturation enthalpy) [4]: 189 kcal/mol
Tmax (denaturation transition temperature) [4]: 80.2 °C
